# Reference: US20220177587A1, “METHODS AND USES OF VARIANT CD80 FUSION PROTEINS AND RELATED CONSTRUCTS” (Alpine Immune Sciences, Inc., priority 2018, published 2022)
# Like-named read-outs stand apart in the source and are kept apart here.
# B1: CD80 IgV-Fc E35D/M47L/V68M/A71G/L85Q/D90G (Fc fusion)
# chain: VIHVTKEVKEVATLSCGHNVSVEELAQTRIYWQKDKKMVLTMMSGDLNIWPEYKNRTIFDITNNLSIMILGLRPSDEGTYECVVQKYEKGAFKREHLAEVTLSVKAD
# B2: CD80 IgV-Fc E35D/M47V/N48K/V68M/A71G/L85M (Fc fusion)
# chain: VIHVTKEVKEVATLSCGHNVSVEELAQTRIYWQKDKKMVLTMMSGDVKIWPEYKNRTIFDITNNLSIMILGLRPSDEGTYECVVMKYEKDAFKREHLAEVTLSVKAD
# B3: variant CD80 IgV-Fc H18Y/E35D/A71G/D90G (Fc fusion)
# chain: VIHVTKEVKEVATLSCGYNVSVEELAQTRIYWQKDKKMVLTMMSGDMNIWPEYKNRTIFDITNNLSIVILGLRPSDEGTYECVVLKYEKGAFKREHLAEVTLSVKAD
# B4: variant CD80 IgV-Fc (inert) H18V/A26P/E35D/M47L/V68M/A71G (Fc fusion)
# chain: VIHVTKEVKEVATLSCGVNVSVEELPQTRIYWQKDKKMVLTMMSGDLNIWPEYKNRTIFDITNNLSIMILGLRPSDEGTYECVVLKYEKDAFKREHLAEVTLSVKAD
# B5: variant CD80 IgV-Fc I30T/L70R (Fc fusion)
# chain: VIHVTKEVKEVATLSCGHNVSVEELAQTRTYWQKEKKMVLTMMSGDMNIWPEYKNRTIFDITNNLSIVIRALRPSDEGTYECVVLKYEKDAFKREHLAEVTLSVKAD
# B6: variant CD80 IgV-Fc E35D/M47L/V68M/D90G (Fc fusion)
# chain: VIHVTKEVKEVATLSCGHNVSVEELAQTRIYWQKDKKMVLTMMSGDLNIWPEYKNRTIFDITNNLSIMILALRPSDEGTYECVVLKYEKGAFKREHLAEVTLSVKAD
# B7: CD80 IgV-Fc E35D/M47L/Y53F/V68M/A71G/K93R/E95V (Fc fusion)
# chain: VIHVTKEVKEVATLSCGHNVSVEELAQTRIYWQKDKKMVLTMMSGDLNIWPEFKNRTIFDITNNLSIMILGLRPSDEGTYECVVLKYEKDAFRRVHLAEVTLSVKAD
# B8: variant CD80 IgV-Fc V20I/M47V/T57I/V84I (Fc fusion)
# chain: VIHVTKEVKEVATLSCGHNISVEELAQTRIYWQKEKKMVLTMMSGDVNIWPEYKNRIIFDITNNLSIVILALRPSDEGTYECVILKYEKDAFKREHLAEVTLSVKAD
# B9: variant CD80 IgV-Fc E35G/K54E/A71D/L72P (Fc fusion)
# chain: VIHVTKEVKEVATLSCGHNVSVEELAQTRIYWQKGKKMVLTMMSGDMNIWPEYENRTIFDITNNLSIVILDPRPSDEGTYECVVLKYEKDAFKREHLAEVTLSVKAD
# B10: CD80 IgV-Fc T13R/Q33R/E35D/M38I/M47L/V68M/E95V/L97Q (Fc fusion)
# chain: VIHVTKEVKEVARLSCGHNVSVEELAQTRIYWRKDKKIVLTMMSGDLNIWPEYKNRTIFDITNNLSIMILALRPSDEGTYECVVLKYEKDAFKRVHQAEVTLSVKAD
# B11: CD80 IgV-Fc H18Y/E35D/M47V/V68M/L85M (Fc fusion)
# chain: VIHVTKEVKEVATLSCGYNVSVEELAQTRIYWQKDKKMVLTMMSGDVNIWPEYKNRTIFDITNNLSIMILALRPSDEGTYECVVMKYEKDAFKREHLAEVTLSVKAD
# B12: variant CD80 IgV-Fc H18Y/A26E/E35D/M47L (Fc fusion)
# chain: VIHVTKEVKEVATLSCGYNVSVEELEQTRIYWQKDKKMVLTMMSGDLNIWPEYKNRTIFDITNNLSIVILALRPSDEGTYECVVLKYEKDAFKREHLAEVTLSVKAD
# B13: variant CD80 IgV-Fc (inert) H18L/A26N/D46E/V68M/A71G/D90G (Fc fusion)
# chain: VIHVTKEVKEVATLSCGLNVSVEELNQTRIYWQKEKKMVLTMMSGEMNIWPEYKNRTIFDITNNLSIMILGLRPSDEGTYECVVLKYEKGAFKREHLAEVTLSVKAD
# B14: variant CD80 IgV-Fc E35D/T57I/L70Q/A71D (Fc fusion)
# chain: VIHVTKEVKEVATLSCGHNVSVEELAQTRIYWQKDKKMVLTMMSGDMNIWPEYKNRIIFDITNNLSIVIQDLRPSDEGTYECVVLKYEKDAFKREHLAEVTLSVKAD
# Legend:
# CD28 (human) [1] = target: CD28 (human) (UniProt P10747)
# human PD-L1 (human) [2] = target: human PD-L1 (human) (UniProt Q9NZQ7)
# Target sequence in this assay (Q9NZQ7 19-290): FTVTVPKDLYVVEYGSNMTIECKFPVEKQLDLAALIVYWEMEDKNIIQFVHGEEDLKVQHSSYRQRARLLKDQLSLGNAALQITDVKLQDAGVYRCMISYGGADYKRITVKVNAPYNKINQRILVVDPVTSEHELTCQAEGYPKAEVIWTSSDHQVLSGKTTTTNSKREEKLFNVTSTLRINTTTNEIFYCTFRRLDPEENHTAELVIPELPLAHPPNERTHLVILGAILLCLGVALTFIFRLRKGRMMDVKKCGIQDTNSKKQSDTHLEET
# human CTLA-4 (human) [3] = target: human CTLA-4 (human) (UniProt P16410); test: flow cytometry, CHO cells stably expressing CTLA4
# Sequence of human CTLA-4 (human) (P16410 36-223): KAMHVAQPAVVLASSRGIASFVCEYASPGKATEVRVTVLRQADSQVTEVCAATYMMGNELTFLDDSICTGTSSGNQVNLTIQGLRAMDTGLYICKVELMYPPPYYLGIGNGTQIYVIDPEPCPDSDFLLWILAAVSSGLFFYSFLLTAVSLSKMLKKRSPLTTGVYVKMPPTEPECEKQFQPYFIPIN
# CD28 (human) [4] = target: CD28 (human) (UniProt P10747); test: flow cytometry, Jurkat cells (CD28)
# human PD-L1 (human) [5] = target: human PD-L1 (human) (UniProt Q9NZQ7); test: flow cytometry, CHO cells stably expressing PD-L1
# Target sequence in this assay (Q9NZQ7 19-290): as the sequence (Q9NZQ7 19-290) above
# human PD-L1 (human) [6] = target: human PD-L1 (human) (UniProt Q9NZQ7); test: flow cytometry, MFI on CHO/PD-L1 over MFI on Jurkat (CD28)
# Target sequence in this assay (Q9NZQ7 19-290): as above
# CD28 (human) [7] = target: CD28 (human) (UniProt P10747); remark: listed apart in the source
# human PD-L1 (human) [8] = target: human PD-L1 (human) (UniProt Q9NZQ7); remark: listed apart in the source
# Target sequence in this assay (Q9NZQ7 19-290): as above
# CD28 (human) [9] = target: CD28 (human) (UniProt P10747); remark: listed apart in the source
# human PD-L1 (human) [10] = target: human PD-L1 (human) (UniProt Q9NZQ7); remark: listed apart in the source
# Target sequence in this assay (Q9NZQ7 19-290 limits assumed): as the sequence (Q9NZQ7 19-290) above
# human PD-L1 (human) [11] = target: human PD-L1 (human) (UniProt Q9NZQ7); test: flow cytometry, MFI on PD-L1 cells over MFI on CD28 cells
# Target sequence in this assay (Q9NZQ7 19-290): as above
# human CTLA-4 (human) [12] = target: human CTLA-4 (human) (UniProt P16410); test: flow cytometry, CHO/CTLA4 cells; MFI over CD80 WT IgV-Fc
# human PD-L1 (human) [13] = target: human PD-L1 (human) (UniProt Q9NZQ7); test: flow cytometry, CHO/PD-L1 cells; MFI over CD80 WT IgV-Fc
# Target sequence in this assay (Q9NZQ7 19-290): as above
# CD28 (human) [14] = target: CD28 (human) (UniProt P10747); test: flow cytometry, Jurkat cells (CD28); MFI over CD80 WT IgV-Fc
# CD28 (human) [15] = target: CD28 (human) (UniProt P10747); remark: listed apart in the source
# human PD-L1 (human) [16] = target: human PD-L1 (human) (UniProt Q9NZQ7); remark: listed apart in the source
# human PD-L1 (human) [17] = target: human PD-L1 (human) (UniProt Q9NZQ7); test: flow cytometry, HEK293 cells transfected with human PD-L1
# CD28 (human) [18] = target: CD28 (human) (UniProt P10747); remark: listed apart in the source
# human PD-L1 (human) [19] = target: human PD-L1 (human) (UniProt Q9NZQ7); test: flow cytometry, HEK293 cells transfected with full-length human PD-L1, PE anti-human Fc
# CD28 (human) [20] = target: CD28 (human) (UniProt P10747); remark: listed apart in the source
# human PD-L1 (human) [21] = target: human PD-L1 (human) (UniProt Q9NZQ7); remark: listed apart in the source
binder,measurement,setting,value
B1,RLU at 5.0 nM: Fold Increase over WT CD80-IgV-Fc,CD28 (human) [1],2.3 fold
same,RLU at 5.0 nM: Fold Increase over WT CD80-IgV-Fc,human PD-L1 (human) [2],2.3 fold
same,Fold change to WT CD80,human CTLA-4 (human) [3],10.1 fold
same,MFI at 33.3 nM,human CTLA-4 (human) [3],10300 MFI
same,Fold change to WT,CD28 (human) [4],33.9 fold
same,MFI at 33.3 nM,CD28 (human) [4],1400 MFI
same,Fold change to WT,human PD-L1 (human) [5],202 fold
same,MFI at 33.3 nM,human PD-L1 (human) [5],16800 MFI
same,Ratio of PDL1:CD28,human PD-L1 (human) [6],12
B2,RLU at 5.0 nM: Fold Increase over WT CD80-IgV-Fc,CD28 (human) [7],3.6 fold
same,RLU at 5.0 nM: Fold Increase over WT CD80-IgV-Fc,human PD-L1 (human) [8],3.6 fold
B3,"IL-2 luciferase reporter, fold increase over WT CD80-IgV-Fc at 5.0 nM",CD28 (human) [9],3.81 fold
same,"IL-2 luciferase reporter, fold increase over WT CD80-IgV-Fc at 5.0 nM",human PD-L1 (human) [10],3.81 fold
same,Fold change to WT CD80,human CTLA-4 (human) [3],19 fold
same,MFI at 33.3 nM,human CTLA-4 (human) [3],25900 MFI
same,Ratio of PDL1:CD28,human PD-L1 (human) [11],6.5
same,Fold change to WT CD80,CD28 (human) [4],29.8 fold
same,MFI at 33.3 nM,CD28 (human) [4],1310 MFI
same,Fold change to WT CD80,human PD-L1 (human) [5],196 fold
same,MFI at 33.3 nM,human PD-L1 (human) [5],8520 MFI
B4,MFI at 33.3 nM,human CTLA-4 (human) [3],16200 MFI
same,Fold change to WT CD80,human CTLA-4 (human) [12],11.7 fold
same,Fold change to WT CD80,human PD-L1 (human) [13],318 fold
same,Fold change to WT CD80,CD28 (human) [14],24 fold
same,"IL2-luciferase reporter, fold increase in RLU over WT CD80-IgV-Fc at 5.0 nM",CD28 (human) [15],4.7 fold
same,"IL2-luciferase reporter, fold increase in RLU over WT CD80-IgV-Fc at 5.0 nM",human PD-L1 (human) [16],4.7 fold
same,MFI at 33.3 nM,CD28 (human) [4],2450 MFI
same,MFI at 33.3 nM,human PD-L1 (human) [5],52400 MFI
B5,MFI at 22.2 nM,human PD-L1 (human) [17],5160
B6,"IL-2 luciferase reporter, fold increase over WT CD80-IgV-Fc at 5.0 nM",CD28 (human) [9],1.82 fold
same,"IL-2 luciferase reporter, fold increase over WT CD80-IgV-Fc at 5.0 nM",human PD-L1 (human) [10],1.82 fold
same,Fold change to WT CD80,human CTLA-4 (human) [3],20.3 fold
same,MFI at 33.3 nM,human CTLA-4 (human) [3],27600 MFI
same,Ratio of PDL1:CD28,human PD-L1 (human) [11],6.9
same,Fold change to WT CD80,CD28 (human) [4],77.8 fold
same,MFI at 33.3 nM,CD28 (human) [4],3410 MFI
same,Fold change to WT CD80,human PD-L1 (human) [5],539 fold
same,MFI at 33.3 nM,human PD-L1 (human) [5],23500 MFI
B7,RLU at 5.0 nM: Fold Increase over WT CD80-IgV-Fc,CD28 (human) [7],3.9 fold
same,RLU at 5.0 nM: Fold Increase over WT CD80-IgV-Fc,human PD-L1 (human) [8],3.9 fold
B8,Fold increase in IL2 reporter signal (Jurkat/IL2 reporter assay) (fold vs WT CD80 IgV-Fc),CD28 (human) [18],0.45
B9,MFI at 22.2 nM,human PD-L1 (human) [19],1580 MFI
B10,RLU at 5.0 nM: Fold Increase over WT CD80-IgV-Fc,CD28 (human) [7],2.5 fold
same,RLU at 5.0 nM: Fold Increase over WT CD80-IgV-Fc,human PD-L1 (human) [8],2.5 fold
B11,RLU at 5.0 nM: Fold Increase over WT CD80-IgV-Fc,CD28 (human) [7],2.5 fold
same,RLU at 5.0 nM: Fold Increase over WT CD80-IgV-Fc,human PD-L1 (human) [8],2.5 fold
same,Fold change to WT CD80,human CTLA-4 (human) [3],18.5 fold
same,MFI at 33.3 nM,human CTLA-4 (human) [3],19300 MFI
same,RLU at 5.0 nM: Fold Increase over WT CD80-IgV-Fc,CD28 (human) [20],6.4 fold
same,RLU at 5.0 nM: Fold Increase over WT CD80-IgV-Fc,human PD-L1 (human) [21],6.4 fold
same,Fold change to WT CD80,CD28 (human) [4],33.7 fold
same,MFI at 33.3 nM,CD28 (human) [4],1390 MFI
same,Fold change to WT CD80,human PD-L1 (human) [5],43.6 fold
same,MFI at 33.3 nM,human PD-L1 (human) [5],3090 MFI
same,Ratio of PDL1:CD28,human PD-L1 (human) [6],2.2
B12,"IL-2 luciferase reporter, fold increase over WT CD80-IgV-Fc at 5.0 nM",CD28 (human) [9],3.1 fold
same,"IL-2 luciferase reporter, fold increase over WT CD80-IgV-Fc at 5.0 nM",human PD-L1 (human) [10],3.1 fold
same,Fold change to WT CD80,human CTLA-4 (human) [3],17.7 fold
same,MFI at 33.3 nM,human CTLA-4 (human) [3],24000 MFI
same,Ratio of PDL1:CD28,human PD-L1 (human) [11],30.7
same,Fold change to WT CD80,CD28 (human) [4],7.4 fold
same,MFI at 33.3 nM,CD28 (human) [4],324 MFI
same,Fold change to WT CD80,human PD-L1 (human) [5],228 fold
same,MFI at 33.3 nM,human PD-L1 (human) [5],9950 MFI
B13,MFI at 33.3 nM,human CTLA-4 (human) [3],17000 MFI
same,Fold change to WT CD80,human CTLA-4 (human) [12],12.3 fold
same,Fold change to WT CD80,human PD-L1 (human) [13],412 fold
same,Fold change to WT CD80,CD28 (human) [14],71.1 fold
same,"IL2-luciferase reporter, fold increase in RLU over WT CD80-IgV-Fc at 5.0 nM",CD28 (human) [15],4.8 fold
same,"IL2-luciferase reporter, fold increase in RLU over WT CD80-IgV-Fc at 5.0 nM",human PD-L1 (human) [16],4.8 fold
same,MFI at 33.3 nM,CD28 (human) [4],7250 MFI
same,MFI at 33.3 nM,human PD-L1 (human) [5],68000 MFI
B14,Fold increase in IL2 reporter signal (Jurkat/IL2 reporter assay) (fold vs WT CD80 IgV-Fc),CD28 (human) [18],0.07
